Reference: the supplement of paper PMC7877785
± gives the uncertainty stated by the source.

Experiment: self-splicing fitness, log relative to wild type (ln ratio); higher = more splicing; Tetrahymena group I intron in knt gene, E. coli kanamycin selection, DiMSum; sequences stand for … in CUCUCU…GGAGGGAAAAGUUAUCAGGCAUGCACCUGGUAGCUAGUCUUUAAACCAAUAGAUUGCAUCGGUUUAAAAGGCAAGACCGUCAAAUUGCGGGAAAGGGGUCAACAGCCGUUCAGUACCAAGUCUCAGGGGAAACUUUGAGAUGGCCUUGCAAAGGGUAUGGUAAUAAGCUGACGGACAUGGUCCUAACCACGCAGCCAAGUCCUAAGUCAACAGAUCUUCUGUUGAUAUGGAUGCAGUUCACAGACUAAAUGUCGGUCGGGGAAGAUGUAUUCUUCUCAUAAGAUAUAGUCGGACCUCUCCUUAAUGGGAGCUAGCGGAUGAAGUGAUGCAACACUGGAGCCGCUGGGAACUAAUUUGUAUGCGAAAGUAUAUUGAUUAGUUUUGGAGUACUCGUGGUCG
Procedure, shortened: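 Pooled colonies went to amplicon sequencing on an Illumina HiSeq 2500 after six replicate transformations. The plates were LB agar with 100 μg/mL carbenicillin, 50 μM IPTG and 0.2% rhamnose, with or without 25 μg/mL kanamycin, incubated overnight at 37°C or 30°C. The E. coli BL21(DE3) library had all eight P1ex-region intron nucleotides randomised, the intron placed in the knt kanamycin-resistance gene on pET-22b(+). DiMSum fitness is the error-weighted combination of replicate fold changes, kanamycin against none, normalised to wild type.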

Sequence | self-splicing fitness (ln) (30 °C) | self-splicing fitness (ln) (37 °C)
GGUGAGCAAUAUUACGAACA | -0.64 ± 0.34 | 0.394 ± 0.47
CAAAAGCAAUAUUACGAUCG | 0.0933 ± 0.07 | 0.514 ± 0.09
AUAGAGCAAUAUUACGCCUA | -0.415 ± 0.11 | 0.144 ± 0.15
AGCAAGCAAUAUUACGGCAG | -0.65 ± 0.065 | -0.357 ± 0.082
GUUCAGCAAUAUUACGCCCA | -0.553 ± 0.1 | -1.26 ± 0.1
CUUCAGCAAUAUUACGGGGC | -2.93 ± 0.22 | -2.21 ± 0.34
CUACAGCAAUAUUACGCCUU | -2.27 ± 0.2 | -1.4 ± 0.31
AGAAAGCAAUAUUACGUGGC | -3.67 ± 0.3 | -1.14 ± 0.19
GUAAAGCAAUAUUACGGUUC | -0.687 ± 0.097 | -0.679 ± 0.13
ACGCAGCAAUAUUACGUCAG | -2.75 ± 0.12 | -3 ± 0.19
AUUUAGCAAUAUUACGGCCG | -1.29 ± 0.15 | -1.6 ± 0.15
CAACAGCAAUAUUACGGGUG | -1.65 ± 0.051 | -0.569 ± 0.057
AUCUAGCAAUAUUACGAAAC | – | -1.96 ± 0.49
ACCGAGCAAUAUUACGCCUC | -2.87 ± 0.19 | -2.36 ± 0.22
CAACAGCAAUAUUACGAGGU | -4.43 ± 0.29 | -2.24 ± 0.17
GUUUAGCAAUAUUACGGUCG | -1.35 ± 0.076 | -0.636 ± 0.099
UGUGAGCAAUAUUACGGUAG | -2.45 ± 0.18 | -1.79 ± 0.21
CCUCAGCAAUAUUACGGGCA | – | -2.2 ± 0.24
GAGCAGCAAUAUUACGUCGG | -4.09 ± 0.31 | -3.07 ± 0.28
CAGAAGCAAUAUUACGCGGA | -3.15 ± 0.15 | -3.11 ± 0.17
GGCCAGCAAUAUUACGACGA | -2.9 ± 0.16 | -1.98 ± 0.12
GAGGAGCAAUAUUACGGAUG | -3.77 ± 0.27 | -2.48 ± 0.24
CCACAGCAAUAUUACGACGC | -3.76 ± 0.33 | -2.08 ± 0.35
GAUCAGCAAUAUUACGGUGA | -0.622 ± 0.069 | -0.422 ± 0.075
GCACAGCAAUAUUACGUAAU | 0.164 ± 0.059 | -0.0143 ± 0.064

Sequence | self-splicing fitness (ln) (30 °C) | self-splicing fitness (ln) (37 °C)
AUUCAGCAAUAUUACGCAGG | -1.26 ± 0.12 | -0.594 ± 0.16
GGUUAGCAAUAUUACGAGGG | -3.05 ± 0.21 | -2.28 ± 0.34
AACGAGCAAUAUUACGGUUC | -2.87 ± 0.18 | -2.09 ± 0.19
UCAUAGCAAUAUUACGAUAG | -3.22 ± 0.19 | -1.79 ± 0.13
GGACAGCAAUAUUACGCAUG | -0.84 ± 0.085 | -0.235 ± 0.11
GCAGAGCAAUAUUACGGUAU | -3.23 ± 0.15 | –
UGAUAGCAAUAUUACGACAC | – | -2.22 ± 0.45
AAUCAGCAAUAUUACGAUUU | -1.8 ± 0.076 | -0.714 ± 0.086
UUGAAGCAAUAUUACGCCAG | -0.461 ± 0.14 | 0.214 ± 0.21
GUGCAGCAAUAUUACGGCCU | -0.775 ± 0.11 | 0.175 ± 0.13
CGUGAGCAAUAUUACGAUUG | -0.949 ± 0.09 | -0.662 ± 0.13
GGAUAGCAAUAUUACGUUUU | -1.33 ± 0.11 | -1.62 ± 0.14
GUCCAGCAAUAUUACGUCGG | -3.83 ± 0.41 | -1.39 ± 0.2
GAGCAGCAAUAUUACGCAUA | -1.11 ± 0.099 | -0.606 ± 0.14
CUGAAGCAAUAUUACGCAAC | – | -2.22 ± 0.35
CGACAGCAAUAUUACGCAUA | -3.03 ± 0.18 | -2.33 ± 0.18
GUUGAGCAAUAUUACGGGGU | -3.56 ± 0.25 | -2.42 ± 0.22
GGCCAGCAAUAUUACGGGAU | -1.73 ± 0.097 | -0.354 ± 0.1
UUGCAGCAAUAUUACGCGCA | -1.84 ± 0.14 | -0.231 ± 0.18
ACCAAGCAAUAUUACGCAGG | -3.41 ± 0.13 | -2.59 ± 0.13
GUCCAGCAAUAUUACGAUCA | -0.611 ± 0.12 | -0.93 ± 0.13
ACGUAGCAAUAUUACGGACA | -1.1 ± 0.083 | -0.739 ± 0.092
AGACAGCAAUAUUACGAGUC | -3.06 ± 0.19 | -2.52 ± 0.22
UAUUAGCAAUAUUACGGUUU | -3.75 ± 0.37 | -2.08 ± 0.2
